The supplement of paper PMC12667976
± gives the standard error.

B1: library; numbered along this chain (parent)
chain: MATDAALRRLLRLHRTEIAVAVDSAFPLLHALADHDVVPEDKFQETLHLKEKEGCPQAFHALLSWLLTQDSTAILDFWRVLFKDYNLERYGRLQPILDSFPKDVDLSQPRKGRKPPAVPKALVPPPRLPTKRKASEEARAAAPAALTPRGTASPGSQLKAKPPKKPESSAEQQRLPLGNGIQTMSASVQRAVAMSSGDVPGARGAVEGILIQQVFESGGSKKCIQVGGEFYTPSKFEDSGSGKNKARSSSGPKPLVRAKGAQGAAPGGGEARLGQQGSVPAPLALPSDPQLHQKNEDECAVCRDGGELICCDGCPRAFHLACLSPPLREIPSGTWRCSSCLQATVQEVQPRAEEPRPQEPPVETPLPPGLRSAGEEVRGPPGEPLAGMDTTLVYKHLPAPPSAAPLPGLDSSALHPLLCVGPEGQQNLAPGARCGVCGDGTDVLRCTHCAAAFHWRCHFPAGTSRPGTGLRCRSCSGDVTPAPVEGVLAPSPARLAPGPAKDDTASHEPALHRDDLESLLSEHTFDGILQWAIQSMARPAAPFPS

Variants of: B1
Assay: AIRE transcriptional activation functional score (insulin promoter-GFP; nonsense median 0, synonymous median 1) (normalised score); higher = higher AIRE activity (more reporter activation)
Settings: with insulin promoter-GFP reporter in HEK293
Outline: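 Functional scores come from comparing select with non-select enrichment of each variant and subtracting wild type. Codon-optimized AIRE NNN-codon libraries across three regions were integrated via Bxb1 recombinase into HEK293 landing-pad cells with an insulin core promoter-GFP reporter, and integrants sorted at day 7 were expanded 7 days before top 10% GFP and unselected populations were tile-sequenced. Variants needed 10 counts per million in non-select, and values were rescaled to nonsense median 0 and synonymous median 1 before averaging over biological replicates.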

Row | Variant | AIRE transcriptional activation functional score
1 | C472H | -0.28 ± 0.12
2 | C472L | -0.0415 ± 0.19
3 | F59V | 0.903 ± 0.24
4 | F59M | 0.656 ± 0.15
5 | L291K | 0.675 ± 0.18
6 | L470Y | 0.549 ± 0.28
7 | G306A | 0.976 ± 0.23
8 | G306H | 1.11 ± 0.041
9 | K164I | 0.719 ± 0.5
10 | K164M | 1.88 ± 0.24
11 | H415N | 1.22 ± 0.098
12 | G150V | 0.822 ± 0.59
13 | F43T | -0.219 ± 0.5
14 | K111S | 1.18 ± 0.35
15 | K111R | 0.805 ± 0.34
16 | G277F | 1.23 ± 0.49
17 | F100C | 0.447 ± 0.15
18 | G424H | 0.363 ± 0.25
19 | V226S | 0.403 ± 0.54
20 | C223M | 0.937 ± 0.17
21 | C223R | 0.797 ± 0.39
22 | E216I | -1.75 ± 0.29
23 | T151G | 1.36 ± 0.36
24 | A352T | 1.32 ± 0.082

Row | Variant | AIRE transcriptional activation functional score
25 | A352M | 1.13 ± 0.076
26 | S476T | 1.2 ± 0.2
27 | L366V | 0.996 ± 0.18
28 | P400G | 1.13 ± 0.12
29 | L341P | 0.971 ± 0.16
30 | P360W | 1.38 ± 0.031
31 | D105E | 0.837 ± 0.3
32 | D105G | 0.621 ± 0.46
33 | D34A | -0.1 ± 0.32
34 | P331Q | 0.548 ± 0.13
35 | I18L | 0.304 ± 0.57
36 | T390G | 1.17 ± 0.082
37 | V377N | 1.2 ± 0.1
38 | V377R | 1.09 ± 0.4
39 | H523I | 0.286 ± 0.059
40 | T524A | 0.636 ± 0.42
41 | S196M | 0.982 ± 0.072
42 | D502W | 1.04 ± 0.047
43 | P129S | 0.685 ± 0.55
44 | P129D | 0.0133 ± 0.42
45 | P490Q | 0.417 ± 0.47
46 | F230C | 0.611 ± 0.09
47 | G263P | 0.887 ± 0.21
48 | P252W | 0.608 ± 0.056

Row | Variant | AIRE transcriptional activation functional score
49 | P56W | 0.16 ± 0.16
50 | I533V | 0.411 ± 0.5
51 | I533W | 0.193 ± 0.14
52 | F82R | 0.341 ± 1.1
53 | F82I | 0.234 ± 0.36
54 | P326Q | 0.303 ± 0.12
55 | P326I | 1.06 ± 0.39
56 | N295K | 1.03 ± 0.083
57 | N295R | 0.795 ± 0.31
58 | Q225R | 0.916 ± 0.2
59 | R92G | 0.724 ± 0.54
60 | R92P | -0.2 ± 0.47
61 | E136P | 1.91 ± 0.84
62 | A138G | 0.96 ± 0.49
63 | A138L | 1.27 ± 0.59
64 | I528A | 0.0102 ± 0.18
65 | I528G | 0.149 ± 0.21
66 | L327C | 0.927 ± 0.26
67 | P126I | 0.105 ± 0.14
68 | C302H | 0.701 ± 0.2
69 | A300L | 0.917 ± 0.29
70 | Q425V | 0.734 ± 0.21
71 | D23K | -0.339 ± 0.073
72 | Q426P | 1.09 ± 0.091

Row | Variant | AIRE transcriptional activation functional score
73 | V37L | -0.0654 ± 0.45
74 | T504E | 0.961 ± 0.32
75 | S169L | 1.7 ± 0.48
76 | K120G | 1.12 ± 0.34
77 | F525S | -0.595 ± 0.53
78 | L283K | 1.19 ± 0.23
79 | L283I | 0.854 ± 0.18
80 | Q275D | 1.33 ± 0.19
81 | Q275W | 1.74 ± 0.026
82 | P280N | 1.37 ± 0.042
83 | E137Q | -0.415 ± 0.88
84 | E137D | 1.23 ± 0.18
85 | T480L | 1 ± 0.23
86 | R89F | 1.93 ± 0.058
87 | L323R | 1.15 ± 0.18
88 | L323A | 1.11 ± 0.27
89 | L7N | -0.876 ± 0.22
90 | H454P | 0.129 ± 0.22
91 | E296T | 0.948 ± 0.19
92 | I74N | -0.347 ± 0.074
93 | W531M | 0.434 ± 0.045
94 | Y231S | 0.49 ± 0.12
95 | Y231R | 0.669 ± 0.13
96 | A134W | 0.124 ± 0.67

Row | Variant | AIRE transcriptional activation functional score
97 | F543A | 0.367 ± 0.22
98 | F543V | 0.18 ± 0.21
99 | E229Y | -0.363 ± 0.21
100 | A6F | 1.43 ± 0.77
101 | R272N | 1.37 ± 0.067
102 | V188L | 1.24 ± 0.23
103 | A258C | 1.18 ± 0.19
104 | A258W | 1.05 ± 0.052
105 | A258E | 1.13 ± 0.18
106 | A258S | 0.657 ± 0.26
107 | D503H | 0.851 ± 0.42
108 | V487N | 0.296 ± 0.28
109 | V487W | 0.552 ± 0.24
110 | L10M | 0.438 ± 0.057
111 | L10T | 0.145 ± 0.36
112 | L495R | 0.848 ± 0.23
113 | L255E | 0.58 ± 0.065
114 | T183V | 0.738 ± 0.28
115 | V345N | 0.989 ± 0.34
116 | H512S | 0.923 ± 0.21
117 | G54P | -0.123 ± 0.31
118 | L75A | 0.288 ± 0.19
119 | I224H | 0.512 ± 0.22
120 | I224F | 0.959 ± 0.2

Row | Variant | AIRE transcriptional activation functional score
121 | P163R | 0.66 ± 0.53
122 | P163L | 0.899 ± 0.46
123 | T364L | 1.22 ± 0.37
124 | K159S | 0.905 ± 0.3
125 | D238G | 1 ± 0.29
126 | V38T | 0.604 ± 0.24
127 | N244K | -0.184 ± 0.41
128 | V484I | 1.45 ± 0.18
129 | V484Q | 1.72 ± 0.046
130 | A429G | 0.724 ± 0.25
131 | A73N | -0.949 ± 0.43
132 | A540P | 1.07 ± 0.37
133 | A540E | 0.617 ± 0.17
134 | A413S | 0.965 ± 0.2
135 | A413M | 1.02 ± 0.11
136 | L32W | -1.32 ± 0.41
137 | R190D | 0.292 ± 0.32
138 | P422H | 0.986 ± 0.049
139 | P380E | 0.934 ± 0.17
140 | P384E | 1.39 ± 0.04
141 | P119Y | 1.63 ± 0.1
142 | V22M | -0.505 ± 0.17
143 | R247Y | 0.724 ± 0.25
144 | R247S | 0.966 ± 0.39

Row | Variant | AIRE transcriptional activation functional score
145 | S71N | 0.235 ± 0.16
146 | S71R | 0.321 ± 0.53
147 | P357F | 1.27 ± 0.11
148 | N179R | 1.52 ± 0.74
149 | L13F | 1.11 ± 0.37
150 | P166F | 1.94 ± 0.29
151 | T16R | -0.0166 ± 0.31
152 | D442Q | 1.03 ± 0.076
153 | D442K | 0.322 ± 0.1
154 | D442G | 1.08 ± 0.099
155 | G201I | 1.23 ± 0.22
156 | W78S | 0.301 ± 0.46
157 | S521C | 0.241 ± 0.2
158 | A404C | 0.451 ± 0.097
159 | E298M | 0.204 ± 0.068
160 | E423D | 1.25 ± 0.21
161 | A152K | 0.993 ± 0.36
162 | A152D | 0.696 ± 0.32
163 | S402Q | 0.546 ± 0.66
164 | I211W | 0.83 ± 0.065
165 | V104E | 0.823 ± 0.34
166 | G431K | 0.71 ± 0.18
167 | C322E | 1.77 ± 0.11
